# Measurements published in patent publication US20240076370A1 (Memorial Sloan Kettering, published 2024).
# Molecular target: T1, human G-protein coupled receptor family C group 5 member D (GPRC5D) (human, UniProt Q9NZD1 1-345)
# T1 construct: Overexpressed on 3T3 cells in the FACS assays; also called human GPRC5D; 3T3-GPRC5D
# Assay: FACS, scFv phage clones on 3T3 cells overexpressing GPRC5D
# T1 sequence (Q9NZD1 whole entry): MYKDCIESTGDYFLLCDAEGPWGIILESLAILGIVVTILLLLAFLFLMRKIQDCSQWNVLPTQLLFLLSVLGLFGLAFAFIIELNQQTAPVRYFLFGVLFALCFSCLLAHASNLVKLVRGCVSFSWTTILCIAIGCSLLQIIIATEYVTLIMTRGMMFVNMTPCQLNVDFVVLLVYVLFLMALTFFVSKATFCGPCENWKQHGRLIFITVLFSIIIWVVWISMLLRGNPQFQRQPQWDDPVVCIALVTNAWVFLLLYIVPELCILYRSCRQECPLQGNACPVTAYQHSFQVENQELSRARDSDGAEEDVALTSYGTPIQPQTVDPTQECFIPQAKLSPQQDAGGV
row,Binder,binding result
1,"ET150-171 scFv (scFv, also called ET150-21 scFv) scFv: QSALTQPASVSGSPGQSITISCTGTSSDVGGYNFVSWYQQHPGKAPKVMIYDVSKRPSGISNRFSGSKSGNTASLTISGLQVEDEAEYYCSSYTSTRTVIFAGGTKVTVLGSRGGGGSGGGGSGGGGSLEMAQVQLVQSGAEVKKPGASVKVSCKASGYTFTSYYMHWVRQAPGQGLEWMGIINPSGGSTRYAQKFQGRVTMTRDTSTSTVYMELSSLRSEDTAVYYCARGSSRWGGWTGDYWGQGTLVTVSS",binds
2,"ET150-028 scFv (scFv, also called ET150-178 scFv) scFv: AELQPVLTQPPSASGTPGQRVTISCSGSSSNIGGNTVSWYQQVPGTAPRLLIFRNNQRPPGVPDRFSGSKSGTSASLAISGLRSEDEADYYCAAWDASRQGVFGGGTKLTVLGSRGGGGSGGGGSGGGGSLEMAQVQLVQSGAEVKKPGSSVKVSCKASGGTFRSYAITWVRQAPGQGLEWMGRIIPMLDITNYAQKFQGRVTITADKSTSTAYMELSSLRSEDTAVYYCARTYSRSPFHMEDFWGQGTLVTVSS",binds
3,"ET150-154 scFv (scFv, also called ET150-4 scFv) scFv: QAVLTQPPSASGTPGQRVTISCSGSSSNIGSNYVYWYQQLPGTAPKLLIYRNNQRPSGVPDRFSGSKSGTSASLAISGLRSEDEADYYCAAWDDSLSGYVFGTGTKVTVLGSRGGGGSGGGGSGGGGSLEMAQVQLVQSGAEVQRPGASVRVSCKAIAYTFTDYYIHWVRQAPGQGPEWMGWINPKSGRTQYAPKFQDRVTLARETPISTASMELRGLTSDDTAVYYCARVYGYSRWSGFDLWGQGTLVTVSS",binds
4,"ET150-162 scFv (scFv, also called ET150-12 scFv) scFv: QSALTQPPSASGSPGQSVTISCTGTSRDAGGYNYFSWYQQHPGKAPKLLIYEVTKRPSGVPDRFSGSKSGKTASLTVSGLQADDEAVYYCSSYGGSNNFRVFGGGTKLTVLGSRGGGGSGGGGSGGGGSLEMAEVQLVESGGGVVRPGGSLRLSCAASGFTFGDYGMSWVRQAPGKGLEWVSGINWNGGSTGYADSVKGRFTISRDNAKNSLYLQMNSLRAEDTAVYYCARSKQDYWGQGTLVTVSS",binds
5,"ET150-166 scFv (scFv, also called ET150-16 scFv) scFv: NFMLTQPHSVSESPGKTVSISCTRTSGAIAGAYVQWFQQRPGSAPTTVIYDDNKRPSGVPDRFSGSIDKSSNSASLTISGLKTEDEADYYCQSYDYDSSNVLFGGGTKLTVLGSRGGGGSGGGGSGGGGSLEMAEVQLVESGGGLVQPGGSLRLSCAASGFTFSNYAMSWVRQAPGKGLEWVSAISGSGNTYYADSVKGRFTISRDNSKNTLYLQMNSLRAEDTAVYYCARGSVRYTDIWGQGTLVTVSS",binds
6,"ET150-161 scFv (scFv, also called ET150-11 scFv) scFv: SYVLTQPPSASGTPGQRVTISCSGSSSNIGSNTVNWYQQLPGTAPKLLIYRNNQRPSGVPDRFSGSKSGTSASLAISGLRSEDEADYYCAAWDDSLSGLFGTGTKVTVLGSRGGGGSGGGGSGGGGSLEMAQMQLVQSGAEVKKPGASVKVSCKASEYTFTRHILHWVRQAPGQSLEWMGWINPGNGNTKYSQKFQVRVTFTRDTSASTVYMELSSLRSEDTAVYYCARLPDQWGQGTLVTVSS",binds
7,"ET150-153 scFv (scFv, also called ET150-3 scFv) scFv: QSVLTQPPSVSAAPGQKVTIPCSGSRSNVGNYYVSWYQQLPGTAPKLLIYDNNKRPSGIPDRFSGSKSGTSATLGITGLQTGDEADYFCGTWDGSLSAHVFGTGTKVTVLGSRGGGGSGGGGSGGGGSLEMAQVQLVQSGSELKKPGASVRVSCTASGYTFTSYYMHWVRQAPGQGLEWMGVINPNAGSTRYAQKFQGRVTMSTDTSTSTAYMDLSSLRSEDTAVYYCARGMYRSLLFYDPWGQGTLVTVSS",binds
8,"ET150-164 scFv (scFv, also called ET150-14 scFv) scFv: QSALTQPPSASGSPGQSVTISCTGTSSDVGGYNYVSWYQQHPGKAPKLMIYEVSKRPSGVPDRFSGSKSGNTASLTVSGLQAEDEADYYCSSYAGSNTLVFGGGTKLTVLGSRGGGGSGGGGSGGGGSLEMAQMQLVQSGAEVKKPGASVKVSCKASGYTFTSYYMHWVRQAPGQGLEWMGIINPSGGSTSYAQKFQGRVTMTRDTSTSTVYMELSSLRSEDTAVYYCARAGMGMDTWGQGTLVTVSS",binds
9,"ET150-165 scFv (scFv, also called ET150-15 scFv) scFv: QSALTQPPSASGSPGQSVTISCTGTSSDIGGYNYVSWYQQHPGKAPKLMIYEVNKRPSGVPDRFSGSKSGNTASLTVSGLQAEDEADYYCASFAGRKTLVFGGGTKLTVLGSRGGGGSGGGGSGGGGSLEMAQVQLVQSGAEVKKPGASVKVSCRASGYTFTAYSLHWVRQAPGQGLEWMGWINPSSGGAVYAQKFQGRVTMTRDTSISTAYMELSGLRSDDTAVYYCARNVGGQADDWGQGTLVTVSS",binds

# Continued, values first:
row,binding result,Binder
1,binds,"ET150-031 scFv (scFv, also called ET150-181 scFv) scFv: AELQSVVTQPPSVSAAPGQRVTISCSGGSSNIGNNYVSWFQQLPRTAPKLLIYDNNKRPSGIPDRFSGSKSGTSAALDITVLQTGDEADYYCGTWDSSLRNWVFGGGTKLTVLGSRGGGGSGGGGSGGGGSLEMAQMQLVQSGAEVKKPGASVKVSCKASGYTFTSYYMHWVRQAPGQGLEWMGIINPSGGSTSYAQKFQGRVTMTRDTSTSTVYMELSSLRSEDTAVYYCARGQKYHSQYSRGGTGGGMTQDMWGQGTLVTVSS"
2,binds,"ET150-172 scFv (scFv, also called ET150-22 scFv) scFv: QSALTQPPSASGSPGQSVTISCTGTSSDVGGYNYVSWYQQHPGKAPKLMIYEVSKRPSGVPDRFSGSKSGNTASLTVSGLQAEDEADYYCSSYAGSNTLVFGGGTKLTVLGSRGGGGSGGGGSGGGGSLEMAQMQLVQSGAEVKKPGASVKVSCKASGYTFTSYYMHWVRQAPGQGLEWMGIINPSGGSSSYAQKFQGRVTMTRDTSTSTVYMELSSLRSEDTAVYYCARAGMGMDTWGQGTLVTVSS"
3,binds,"ET150-173 scFv (scFv, also called ET150-23 scFv) scFv: QSALTQPASVSGSPGQSITISCTGTSSDVGGYNYVSWYQQSPGKAPRLMIYGVSKRPSGVPDRFSGSKSGNTASLTVSGLQAEDEADYYCSSYAGVNNLMFGGGTKLTVLGSRGGGGSGGGGSGGGGSLEMAQVQLVQSGAEVKKPGASVKVSCKASGYTFTSYYMHWVRQAPGQGLEWMGIINPSGGSTSYAQKFQGRVTMTRDTSTSTVYMELSSLRSEDTAVYYCARDVISGFDSWGQGTLVTVSS"
4,binds,"ET150-026 scFv (scFv, also called ET150-176 scFv) scFv: AELSYELTQPPSASGTPGQRVSISCSGSSSNIGSNTVNWYQQFPGTAPKLLIHSNNQRPSGVPDRFSGSKSGTSASLAISGPQSEDEADYYCAAWDDSVNGYVFGTGTKVTVLGSRGGGGSGGGGSGGGGSLEMAQLQLQESGGGSVQPGGSLRLSCAASGFTFSNYAMSWVRQAPGKGLEWVSAITNSGRSTYYADSVKGRFTISRDNSKNTLSLQMSSLRAEDTAVYYCARVTHRRYGSTFDSRGQGTLVTVSS"
5,binds,"ET150-169 scFv (scFv, also called ET150-19 scFv) scFv: QSVVTQPPSVSAAPGQKVTISCSGSSSNIGNNYVSWYQQLPGTAPKLLIYDNNKRPSGIPDRFSGSKSGTSATLGITGLQTGDEADYYCGTWDSSLSGVVFGGGTKLTVLGSRGGGGSGGGGSGGGGSLEMAQVQLVQSGGEVKKPGASVKVSCKASGFTFNTYGISWVRQAPGQGLEWMGWISANNGHTKSAQRFQDRVAMATDTSTSTAYMELRSLKFDDTAVYYCARGGYHHQMQRYYKATSVYSDYWGQGTLVTVSS"
6,binds,"ET150-030 scFv (scFv, also called ET150-180 scFv) scFv: AELQSVLTQPPSVSGAPGQRVTISCTGSSSNIGAGYDVHWYQQLPGRAPKLLIYGNSNRPSGVPDRFSGSKSGTSASLAITGLQAEDEADYYCQSYDSSLRGYVFGTGTKVTVLGSRGGGGSGGGGSGGGGSLEMAQVQLVQSGGGVVQPGRSLRLSCAASGFSFSGTAMHWVRQAPGKGLEWVSTISSTGRSTYYRDSVKGRFTISRDNSKNTLYLQMNSLRGEDTAVYYCARPVSSMTLSIQSDGWGQGTLVTVSS"
7,binds,"ET150-160 scFv (scFv, also called ET150-10 scFv) scFv: QSALTQPASVSGSPGQSITISCTGTSSDVGGYNYVSWYQQHPGKAPKLMIYDVSKRPSGVSNRFSGSKSGNTASLTISGLQAEDEADYYCSSYTRSSTEVFGGGTKLTVLGSRGGGGSGGGGSGGGGSLEMAEVQLVQSGAEVKKPGASVKVSCKASGYTFTSYYMHWVRQAPGQGLEWMGIINPSGGSTSYAQKFQGRVTMTRDTSTSTVYMELSSLRSEDTAVYYCARGGSKKWSGEKWRRENFDYWGQGTLVTVSS"
8,binds,"ET150-167 scFv (scFv, also called ET150-17 scFv) scFv: QSALTQPPSASGSPGQSVTISCTGTSTDIGGYNYVSWYQHHPSKAPKLMIYEVNKRPSGVPDRFSGSKSGNTASLTVSGLQAEDEADYYCASFAGRKTLVFGGGTKLTVLGSRGGGGSGGGGSGGGGSLEMAQVQLVQSGAEVKKPGASVKVSCRASGYTFTAYSLHWVRQAPGQGLEWMGWINPSSGGAVYAQKFQGRVTMTRDTSISTAYMELSGLRSDDTAVYYCARNVGGHADDWGQGTLVTVSS"
9,binds,"ET150-033 scFv (scFv, also called ET150-183 scFv) scFv: AELQAVLTQPPSASGTPGQRVTISCSGSSSNIGSNYVYWYQQLPGTAPKLLIYRNNQRPSGVPDRFSGSKSGTSASLAISGLRSEDEADYYCAAWDDSLSGRVFGTGTKVTVLGSRGGGGSGGGGSGGGGSLEMAQLQLVQSGAEVKKPGSSVKVSCKASGYTFNTYYLHWVRQAPGQGLEWMGRINPNNGGTNYAQKFQGRVTMTRDTSINTAYMELSRLRSDDTAVYYCARSYDYWGQGTLVTVSS"
10,binds,"ET150-032 scFv (scFv, also called ET150-182 scFv) scFv: AELQSVLTQPPSASGSPGQSLTISCTGTSSDVGGYNHVSWYQQYPGKAPKLMIYEVTKRPSGVPDRFSGSKSGNTASLTVSGLQAEDEADYYCSSYAGSAHWVFGGGTKLTVLGSRGGGGSGGGGSGGGGSLEMAEVQLVQSGAEVKKPGASVKVSCKASGYTFSRYYIHWVRQAPGQGLEWMGWMNPNSGNTGYAQKFQGRVTMTRNTSISTAYMELSSLRSEDTAVYYCARGRYHVIDYWGQGTLVTVSS"
11,binds,"ET150-163 scFv (scFv, also called ET150-13 scFv) scFv: QSVVTQPPSVSGAPGQRVTISCTGSSSNIGAGYDVHWYQQLPGTAPKLLIYGNSNRPSGVPDRFSGSKSGTSASLAITGLQAEDEADYYCQSYDSSLSGSYVFGTGTKLTVLGSRGGGGSGGGGSGGGGSLEMAEVQLVETGGNLVQPGASLRLSCAASGFSFSGTAMHWVRQAPGKGLEWVSTISSTGRSTYYRDSVKGRFTISRDNSKNTLYLQMNSLRGEDTAVYYCARVSFDYWGQGTLVTVSS"
